Measured values from the DeepSol protein solubility set.

Assay: soluble on expression in E. coli; label from the status in PepcDB or PDB records

Sequence	soluble on expression in E. coli
MTNSEPRRMTCDSEVVWKKLQDGLDVAYRRENMAPKDYMTLYTSVYDYCTSITLSTSRRDGEDGRAESSTPARTAGADFVGHEMYQRVEEYVKAYVIAVCEKGAELSGEDLLKYYTTEWENFRISSKVMDGIFAYLNRHWIRRELDEGHENIYMVYTLALVVWKRNLFNDLKDKVIDAMLELIRSERTGSMINSRYISGVVECLVELGVDDSETDAKKDAETKKLAVYKEFFEVKFLEATRGFYTQEAANFLSNGGNVTDYMIKVETRLNQEDDRCQLYLNSSTKTPLATCCESVLISNQLDFLQRHFGGLLVDKRDDDLSRMFKLCDRVPNGLDELRKSLENHIAKEGHQALERVAMEAATDAKLYVKTLLEVHERYQSLVNRSFKNEPGFMQSLDKAATSFINNNAVTKRAPPQAQLTKSAELLARYCDQLLRKSSKMPDEAELEELQTKIMVVFKYIDDKDVFSKFYTKMFSKRLISELSASDEAEANFITKLKSMCGYEYTARLSKMVNDTQVSKDLTADFKEKKADMLGQKSVEFNVLVLSSGSWPTFPTTPITLPQQLSKTIEIFGQFYNEKFNGRRLTWVYSQSRGEITSTAFPKKYVFTATTAQMCTMLLFNEQDSYTVEQIAAATKMDEKSAPAIVGSLIKNLVLKADTELQKEDEVPMTATVSLNKAYMNKKVRVDLSKFTMKQDAVRDTENVQKNVEEDRKSVISACIVRIMKTRKRVQHQQLMTEVITQLSGRFKPKVEMIKRCIGSLIEKEYMLRTEGQKDLYEYLA	not soluble
MTNTAKILNFCRGNFAKQERNVADLDDGYARLSNMLLEAYSGADLTKRQFKVLLAILRKTYGWNKPMDRITDSQLSEITKLPVKRCNEAKLELVRMNIIKQQGGMFGPNKNISEWCIPQNEGKSPKTRDKTSLKLGDCYPSKQGDTKDTITKEKRKDYSSENSGESSDQPENDLSVVKPDAAIQSGSKWGTAEDLTAAEWMFDMVKTIAPSARKPNFAGWANDIRLMRERDGRNHRDMCVLFRWACQDNFWSGNVLSPAKLRDKWTQLEINRNKQQAGVTACKPKLDLTNTDWIYGVDL	not soluble
MTNWLIAYQGEPGAYSEIAALRFGEPLPCESFDDVFSAVTEQKADYAVIPIENSLGGSIHQNYDLLLRRPVVILAETFVKVEHCLLGLPGASVETATKAMSHPQALVQCHNFFATHPQIRAEAAYDTAGSAKMVAESRDKSALAIASKRAGELYGLDILKENLADEEWNITRFFCIAHENN	not soluble
MTPEQAHARARATGPLPLGAGEPAPRGMVRLAHGDGTGLALQVWPDGATPSLLEEYQVAPVNVERSGETRRVLAAALKCCWTDLGADPWPGAPAPVEDVLSAYRALIGRGDDLMRNWAIGALRRLHDSAWLEVEDGVVRLGPRCACWPSESHAQLRELMRRLPTGDEGLTGLEVLPADGRAPAETAASVAPPEDVDEDLLGPFDERRRAEIVAAFIAVEHAAEPVHEARLPALRDPVLRRALAEMLQRRGRVLIQDREAWTSGYAPEVTAVTGTTVGEAERAVLVLVLIHSVAIPRADGLLPADSWLSPFPAQVEELRRHTRLPIGELEAALRTLRHAGLVTQVKAGEEAGGYTPGPQFHRLTPQARRGLQEELILAAGPHTPLAAAVRANRR	not soluble
MTPPIISPESFEALRRMRAAEPTMVAERFKQRRKRELLGEDGKLFIVAADHPARGALAVGDNETAMANRYELLERMAIALSRPGVDGVLGTPDIIDDLAALGLLDDKIVVGSMNRGGLRGASFEMDDRYTGYNVSSMVDRGVDFAKTLVRINLSDAGTAPTLEATAHAVNEAAAAQLPIMLEPFMSNWVNGKVVNDLSTDAVIQSVAIAAGLGNDSSYTWMKLPVVEEMERVMESTTMPTLLLGGEGGNDPDATFASWEHALTLPGVRGLTVGRTLLYPQDGDVAAAVDTAARLVHTDIQQFTSQSILEHHHHHH	soluble
MTPSVAQNTKYVNLFIGTSGDNGQVAPGAAAPFGMVCVCPDNDPRSHAGYDYAVTKVSGISVNRLSGVGCSGGGGNLRIRPVAPSQELHIKKSREKATPGYYSTAFTNGIKTELTATNAMAVERYKFPRSLSAALWIDFASTFEDVATCHYKRISETCIEGYVQAKNVCGHGCYKLYFSLNTSQPLEHHHHHH	not soluble
MTPTEQAAVRPPLPVKMVIAGGFGVGKTTAVGSISEIVPLTTEAAITEVAAGVDDLTHTPRKTTTTVAMDFGCITIDPTLKLYLFGTPGQDRFGFMWDDLVEGAVGGLVIVDTRRLDDCYAAVDYFEHKQIPFAVALNAFDGRIEHDLDEVRWALDVAERVPVVVFDARERGSVRDALLVVLELALARTGALEHHHHHH	not soluble
